Data as given in PMC8476561 (2021).

Molecular target: SARS-CoV-2 RBD (wild type) (SARS-CoV-2, UniProt P0DTC2 319-541)
Assay: SPR

B1: Mouse angiotensin-converting enzyme 2 (receptor)
chain: SLTEENAKTFLNNFNQEAEDLSYQSSLASWNYNTNITEENAQKMSEAAAKWSAFYEEQSKTAQSFSLQEIQTPIIKRQLQALQQSGSSALSADKNKQLNTILNTMSTIYSTGKVCNPKNPQECLLLEPGLDEIMATSTDYNSRLWAWEGWRAEVGKQLRPLYEEYVVLKNEMARANNYNDYGDYWRGDYEAEGADGYNYNRNQLIEDVERTFAEIKPLYEHLHAYVRRKLMDTYPSYISPTGCLPAHLLGDMWGRFWTNLYPLTVPFAQKPNIDVTDAMMNQGWDAERIFQEAEKFFVSVGLPHMTQGFWANSMLTEPADGRKVVCHPTAWDLGHGDFRIKMCTKVTMDNFLTAHHEMGHIQYDMAYARQPFLLRNGANEGFHEAVGEIMSLSAATPKHLKSIGLLPSDFQEDSETEINFLLKQALTIVGTLPFTYMLEKWRWMVFRGEIPKEQWMKKWWEMKREIVGVVEPLPHDETYCDPASLFHVSNDYSFIRYYTRTIYQFQFQEALCQAAKYNGSLHKCDISNSTEAGQKLLKMLSLGNSEPWTKALENVVGARNMDVKPLLNYFQPLFDWLKEQNRNSFVGWNTEWSPYADQSIKVRISLKSALGANAYEWTNNEMFLFRSSVAYAMRKYFSIIKNQTVPFLEEDVRVSDLKPRVSFYFFVTSPQNVSDVIPRSEVEDAIRMSRGRINDVFGLNDNSLEFLGIHPTLEPPYQPPV
Kd: > 1 mM
